Assay results as given in PMC8761493, “New insights into the phosphorylation of the threonine motif of the β1 integrin cytoplasmic domain” (Life Science Alliance, 2022).

Legend:
endogenous kindlin-2 = assay: Peptide pull-down from whole cell lysate, Western blot; assay type: binding; conditions: densitometry, compared with β1-WT, mean ± SD, n = 5, SD
Experimental: (§1) Before use, peptides were immobilized on 25 μl Dynabeads MyOne Streptavidin C1 (10 mg/ml; Invitrogen) in Mammalian Protein Extraction Reagent (Thermo Fisher Scientific) containing protease inhibitors (cOmplete; Roche) and phosphatase inhibitors (Phosphatase Inhibitor Cocktail 2 and 3; Sigma-Aldrich) for 3 h at 4°C. Cell lysates were prepared with MPER containing protease and phosphatase inhibitors and 0.5 mg of supernatant was incubated with the peptide-coated beads at 4°C under constant rotation. For pull-downs with recombinant proteins, synthetic β1 integrin tail peptides were immobilized on 25 μl Dynabeads MyOne Streptavidin C1 (10 mg/ml; Invitrogen) for 3 h at 4°C, incubated with 2% BSA in Mammalian Protein Extraction Reagent (Thermo Scientific Scientific) for 30 min at 4°C to block unspecific binding before adding kindlin-2 or THD (conc 2.5 and 8.5 nM, respectively) and further incubation on a rotator for 2 h at 4°C. After washing the beads three times with lysis buffer, the proteins bound to the beads were eluted using Laemmli buffer, separated on a 10% SDS–PAGE, and analyzed by Western blotting.

endogenous SNX17 = assay: as above; assay type: binding; conditions: densitometry, compared with β1-WT, mean ± SD, n = 5, SD
Experimental: as §1

[1] = Mass spectrometry-based measurement of the peptide's phosphorylation state after incubation in whole cell lysates; assay type: in vitro ADME; conditions: whole cell lysate in MPER with protease and phosphatase inhibitors, 4°C; read-out mass spectrometry
recombinant kindlin-2 = assay: Streptavidin-bead peptide pull-down with recombinant protein; assay type: binding; conditions: N-terminally desthio biotinylated peptide on streptavidin beads; kindlin-2 2.5 nM; THD absent or present; 2 h at 4°C; Western blot
Experimental: as §1

kindlin-2 [2] = molecular target: T1, kindlin-2 (Homo sapiens, UniProt Q96AC1); assay: Microscale thermophoresis (MST) affinity measurement; assay type: binding; conditions: compared with β1-WT tails
T1 sequence (Q96AC1 1-680): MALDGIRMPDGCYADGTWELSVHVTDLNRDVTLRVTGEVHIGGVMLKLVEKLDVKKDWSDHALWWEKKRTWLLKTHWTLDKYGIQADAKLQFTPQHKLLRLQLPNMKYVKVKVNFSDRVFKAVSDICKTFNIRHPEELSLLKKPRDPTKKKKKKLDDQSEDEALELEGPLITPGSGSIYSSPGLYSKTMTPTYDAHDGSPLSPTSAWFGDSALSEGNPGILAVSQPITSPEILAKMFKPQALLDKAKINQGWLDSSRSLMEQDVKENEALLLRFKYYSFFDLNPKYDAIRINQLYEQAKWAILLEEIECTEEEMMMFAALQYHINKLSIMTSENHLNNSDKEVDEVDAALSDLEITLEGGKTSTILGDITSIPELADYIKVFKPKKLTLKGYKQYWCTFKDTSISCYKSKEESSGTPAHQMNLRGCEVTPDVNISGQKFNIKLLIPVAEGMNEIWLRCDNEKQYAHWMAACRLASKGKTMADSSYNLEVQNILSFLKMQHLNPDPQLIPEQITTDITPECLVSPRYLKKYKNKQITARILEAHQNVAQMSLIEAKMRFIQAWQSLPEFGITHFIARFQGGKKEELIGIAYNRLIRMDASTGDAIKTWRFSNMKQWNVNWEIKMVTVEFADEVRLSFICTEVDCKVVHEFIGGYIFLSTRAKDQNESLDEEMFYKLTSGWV
Experimental: All MST measurements were performed on a Monolith NT.115 red-blue (Nanotemper) using premium-coated capillaries to reduce non-specific interaction of the proteins with the glass surface. Both interaction partners (ligand and receptor) were transferred into MST buffer (20 mM Tris, pH 7.5, 200 mM sodium chloride, 1 mM tris(2-carboxyethyl)phosphine [TCEP], 0.05% Tween-20) to avoid artifacts derived from buffer mismatches. […] The measurements were carried out at 20% light emitting diode power and 20% and 40% MST power. Data were analyzed using the MO Affinity Analysis Software (Nanotemper).

kindlin-2 [3] = molecular target: kindlin-2 (UniProt Q8CIB5); assay: microscale thermophoresis, Atto488-labeled peptides; conditions: reference: β1-WT tail peptide; sites T788,T789
[4] = molecular target: talin-1 head domain (THD) head domain (UniProt P26039); assay: as above; conditions: reference: β1-WT tail peptide; sites T788,T789
SNX17 = SNX17 (UniProt Q8BVL3); assay: biotinylated peptide pull-down from cell lysate; conditions: reference: β1-WT tail peptide; sites T788,T789
kindlin-2 [5] = molecular target: kindlin-2 (UniProt Q8CIB5); assay: biotinylated peptide pull-down from cell lysate; conditions: reference: β1-WT tail peptide; sites T788,T789
kindlin-2 [6] = molecular target: kindlin-2 (UniProt Q8CIB5); assay: streptavidin-bead peptide pull-down, Western blot; conditions: reference: β1-WT tail peptide; sites T788,T789
[7] = molecular target: talin-1 head domain (THD) head domain (UniProt P26039); assay: streptavidin-bead peptide pull-down, Western blot; conditions: reference: β1-WT tail peptide; sites T788,T789

| reduction of the peptide's phosphorylation after incubation in whole cell lysates [1] | affinity of kindlin-2 for the tail peptide (in words) (kindlin-2 [2]) | binding against the reference (kindlin-2 [3]) | binding against the reference [4] | percent of reference (SNX17) [%] | percent of reference (kindlin-2 [5]) [%] | binding against the reference (kindlin-2 [6]) | binding against the reference [7] | Compound | kindlin-2 binding to the peptide, reduced to (endogenous kindlin-2) [%] | SNX17 binding to the peptide, reduced to (endogenous SNX17) [%] | pull-down of recombinant kindlin-2 (in words) (recombinant kindlin-2) |
| --- | --- | --- | --- | --- | --- | --- | --- | --- | --- | --- | --- |
| around 40% | not measurable anymore | – | – | – | – | – | – | CC[C@H](C)[C@H](NC(=O)[C@@H]1CCCN1C(=O)[C@H](CC(N)=O)NC(=O)[C@H](CCC(=O)O)NC(=O)CNC(=O)[C@@H](NC(=O)[C@H](CC(=O)O)NC(=O)[C@H](Cc1c[nH]c2ccccc12)NC(=O)[C@H](CCCCN)NC(=O)[C@H](C)NC(=O)[C@H](CC(N)=O)NC(=O)[C@H](CCSC)NC(=O)[C@H](CCCCN)NC(=O)[C@H](CCC(=O)O)NC(=O)[C@H](CCCCN)NC(=O)[C@H](CCC(=O)O)NC(=O)[C@H](Cc1ccccc1)NC(=O)[C@H](CCCCN)NC(=O)[C@H](C)NC(=O)[C@H](Cc1ccccc1)NC(=O)[C@H](CCC(=O)O)NC(=O)[C@H](CCCNC(=N)N)NC(=O)[C@H](CCCNC(=N)N)NC(=O)[C@H](CC(=O)O)NC(=O)[C@@H](N)Cc1c[nH]cn1)[C@@H](C)O)C(=O)N[C@@H](Cc1ccc(O)cc1)C(=O)N[C@@H](CCCCN)C(=O)N[C@@H](CO)C(=O)N[C@@H](C)C(=O)N[C@H](C(=O)N[C@H](C(=O)N[C@H](C(=O)N[C@H](C(=O)N[C@H](C(=O)N[C@@H](CC(N)=O)C(=O)N1CCC[C@H]1C(=O)N[C@@H](CCCCN)C(=O)N[C@@H](Cc1ccc(O)cc1)C(=O)N[C@@H](CCC(=O)O)C(=O)NCC(=O)N[C@@H](CCCCN)C(=O)O)C(C)C)C(C)C)[C@@H](C)OP(=O)(O)O)[C@@H](C)OP(=O)(O)O)C(C)C [β1-pTpT] | 27 ± 11 | 60 ± 11 | not |
| – | – | lost | same | 60 | 27 | lost | same | β1 integrin (cytoplasmic tail, β1-tail) cytoplasmic tail (from UniProt P09055) β1-pTpT tail peptide | – | – | – |
